Measured values as given in US20180142000A1.
Residue numbers refer to the chain shown, from its start. Values joined by “and” are separate entries in the source; they are usually repeats but may differ in a detail not shown here. Identical values can stand only once. Like-named read-outs stand apart in the source and are kept apart here.

Assays:
[1] = target: C. jejuni (strain 81-176) flagella (Campylobacter jejuni strain 81-176)
[2] = target: C. jejuni (strain 81-176) flagella (Campylobacter jejuni strain 81-176); test: ELISA on coated flagella, approximate affinity
[3] = target: C. jejuni (strain 81-176) flagella (Campylobacter jejuni strain 81-176); test: SPR (Biacore 3000), single-cycle kinetics, […]

B1: FlagV6M (VHH)
VHH: QVKLEESGGGLVQAGGSLRVSCTASVSTFSINALGWYRQAPGKARELVAAIGSDGTVYYTDSVKGRFTISRDNAKNTVSLQMSSLKPEDTAVYYCNAAGKRIGSDGSIWFAVASFGSWGQGTQVTVSS
**Q.** For B1, which Kd [1] is on record?
**A.** The Kd was 25 nM.

**Q.** What about the koff [1] of the same binder?
**A.** Its koff is 0.03 s⁻¹.

**Q.** And the kon [1]?
**A.** The kon was 1e+06 M⁻¹ s⁻¹.

B2: FlagV1M (VHH)
VHH: QVKLEESGGGLVQAGGSRRLSCATSGLTFRNFHMAWFRQVAGKEREVVAAISWSRDRQYYPDPVKGRFTITRDNAKNTVYLQMNSLKPEDTAVYYCAARTASASGDWYKGSYQYWGQGTQVTVSS
**Q.** Which Kd [2] does the source give for B2 here?
**A.** The Kd was 20 nM and 30 nM.

**Q.** And the Kd [3]?
**A.** The Kd was 23.9 nM.

**Q.** And the koff [3]?
**A.** Its koff is 0.00563 s⁻¹.

**Q.** What about the kon [3] of the same binder?
**A.** The kon was 236000 M⁻¹ s⁻¹.

B3: FlagV1MDSB (VHH)
VHH: B2 VHH with A49C, I70C
**Q.** Which Kd [3] does the source give for B3 here?
**A.** The Kd was 18.2 nM.

**Q.** And the koff [3]?
**A.** The koff was 0.0028 s⁻¹.

**Q.** And the kon [3]?
**A.** The kon was 153000 M⁻¹ s⁻¹.

B4: FlagV1F23MDSB (VHH)
VHH: B2 VHH with K3Q, E5V, A49C, I70C
**Q.** What does the source list for B4?
**A.** Kd [3]: 17.3 nM; koff [3]: 0.00286 s⁻¹; kon [3]: 165000 M⁻¹ s⁻¹

B5: FlagV1F23M (VHH)
VHH: B2 VHH with K3Q, E5V
**Q.** B5 was tested. Which Kd [3] did it give?
**A.** The Kd was 18.6 nM.

**Q.** And the koff [3]?
**A.** The koff was 0.00426 s⁻¹.

**Q.** What about the kon [3] of the same binder?
**A.** Its kon is 229000 M⁻¹ s⁻¹.
